{"source": "patent US8541373B2", "about": "“BChE albumin fusions for the treatment of cocaine abuse” (priority 2009, dated 2013)", "key": {"cocaine [1]": {"test_system": "cocaine", "assay": "AlbuBChE PK/PD analysis, sigmoidal inhibitory effect Emax model (cocaine AUC)", "from_the_text": "AlbuBChE PK/PD relationship was defined using the computer software WinNonlin Professional (Version 4.0.1 Pharsight Corporation, USA). Specifically the direct sigmoidal inhibitory Effect Emax model was use in which maximum effect (Emax) as measured by cocaine AUC was assumed at AlbuBChE concentration of zero. The model equation can be described as follows: Inhibitory Effect Sigmoid Emax, C=0 at Emax, C=infinity at Eo E=Emax−(Emax−E0)*(C**Gamma/(C**Gamma+EC50**Gamma))\nThe PD parameter used in the analysis was cocaine AUC. PK parameters used in the model were AlbuBChE plasma concentrations at 2, 48, 96, 120, and 240 hr post-AlbuBChE dose. Due to the fact that AlbuBChE concentration was not measured at 2 hr post-AlbuBChE dose, the concentration at 3 hr postdose was used in the analysis with the assumptions that AlbuBChE concentration at 3 hr post AlbuBChE dose may reflect AlbuBChE conc. at 2 hr post AlbuBChE dose."}, "[2]": {"assay": "Clinical study: safety, tolerability and immunogenicity of single IM AlbuBChE", "assay_type": "in vivo, human", "details": "humans", "method": "Forty (40) non-treatment seeking healthy adults who have used cocaine are randomly assigned to five (5) treatment groups. Each group will contain eight subjects. • Group A (low dose): Subjects receive a single, intramuscular injection of 50 mg of AlbuBChE. • Group B (intermediate dose): Subjects receive a single, intramuscular injection of 100 mg of AlbuBChE. • Group C (high-intermediate dose): Subjects receive a single, intramuscular injection of 150 mg of AlbuBChE. • Group D (high dose): Subjects receive a single, intramuscular injection of 300 mg of AlbuBChE. • Group E (negative control): Subjects receive a single, intramuscular injection of placebo.\nVital signs, including blood pressure, heart rate (part of the PD parameters) and body temperature are monitored. […]. Telemetry is performed for 4 hours immediately after each cocaine injection.\nLocal tolerability and pain (evaluated by the visual analogue scale (VAS)) at the injection site are evaluated during the first 24 h after dosing. Timepoints are: 20 min, 1, 2, 4, 8 and 24 hours post AlbuBChE dose.\nSamples for immunogenic levels are collected but are not all necessarily assayed. Titers for antibodies against HSA, human butyryl cholinesterase (hBChE) and AlbuBChE are evaluated. Sampling timepoints are: pre-dose and 168 hours (Day 8), 240 hours (Day 11) and follow-up (Day 18±2) post-dose. The blood tests for IG assays take place before administration of cocaine (where relevant)."}, "cocaine [3]": {"test_system": "cocaine", "assay": "AlbuBChE PK/PD analysis, direct inhibitory effect Emax model (cocaine concentration at 5 min)", "details": "Squirrel monkeys, cocaine at 5 min, approximate estimate", "method": "In spite of the limited amount of data, an attempt was made to characterize PK/PD relationship. The computer software WinNonlin Professional (Version 4.0.1 Pharsight Corporation, USA) was used. Specifically the direct Inhibitory Effect Emax model was use in which Emax was assumed at AlbuBChE concentration of zero. The model equation can be described as follows: E=Emax*(1−(C/(C+EC50)))\nThe PD parameter used in the analysis was cocaine plasma concentration at 5 min post-cocaine dose. PK parameters used in the model were AlbuBChE plasma concentrations at 2, 72 and 96 hr post-AlbuBChE dose. Due to the fact that AlbuBChE concentration was not measured at 2 hr post-AlbuBChE dose, the 1st time sample collected was used in the analysis (24 hr post-AlbuBChE dose) with the assumptions that AlbuBChE concentration at 24 hr post AlbuBChE dose may reflect AlbuBChE concentration at 2 hr post AlbuBChE dose."}, "[4]": {"assay": "Animal observations in PK/PD study"}}, "note": "Values joined by “and” are separate entries in the source; they are usually repeats but may differ in a detail not shown here. Equal values may be shown once."}
{"substance": "AlbuBChE", "values": [{"measurement": "AlbuBChE Conc. used in PK/PD analysis, individual animals", "setting": "cocaine [1]; 0.2 mg/kg IM, time 2 hr", "value": "107 ng/mL and 257 ng/mL and 196 ng/mL"}, {"measurement": "AlbuBChE Conc. used in PK/PD analysis, individual animals", "setting": "cocaine [1]; 0.2 mg/kg IM, time 48 hr", "value": "0 ng/mL and 66.4 ng/mL and 80.7 ng/mL"}, {"measurement": "AlbuBChE Conc. used in PK/PD analysis, individual animals", "setting": "cocaine [1]; 0.2 mg/kg IM, time 96 hr", "value": "0 ng/mL (2×) and 30 ng/mL"}, {"measurement": "AlbuBChE Conc. used in PK/PD analysis, individual animals", "setting": "cocaine [1]; 0.2 mg/kg IM, time 120 hr", "value": 0, "unit": "ng/mL"}, {"measurement": "AlbuBChE Conc. used in PK/PD analysis, individual animals", "setting": "cocaine [1]; 0.2 mg/kg IM, time 240 hr", "value": 0, "unit": "ng/mL"}, {"measurement": "Cocaine AUC(0-t), individual animals", "setting": "cocaine [1]; 0.2 mg/kg IM, cocaine 1 mg/kg IV 2 hr post-AlbuBChE", "value": "13317 ng·min/mL and 10812 ng·min/mL and 11504 ng·min/mL"}, {"measurement": "Cocaine AUC(0-t), individual animals", "setting": "cocaine [1]; 0.2 mg/kg IM, cocaine 1 mg/kg IV 48 hr post-AlbuBChE", "value": "8550 ng·min/mL and 7315 ng·min/mL and 7276 ng·min/mL"}, {"measurement": "Cocaine AUC(0-t), individual animals", "setting": "cocaine [1]; 0.2 mg/kg IM, cocaine 1 mg/kg IV 96 hr post-AlbuBChE", "value": "13936 ng·min/mL and 8978 ng·min/mL and 10522 ng·min/mL"}, {"measurement": "Cocaine AUC(0-t), individual animals", "setting": "cocaine [1]; 0.2 mg/kg IM, cocaine 1 mg/kg IV 120 hr post-AlbuBChE", "value": "11293 ng·min/mL and 11428 ng·min/mL and 12111 ng·min/mL"}, {"measurement": "Cocaine AUC(0-t), individual animals", "setting": "cocaine [1]; 0.2 mg/kg IM, cocaine 1 mg/kg IV 240 hr post-AlbuBChE", "value": "13669 ng·min/mL and 12762 ng·min/mL and 14649 ng·min/mL"}, {"measurement": "AlbuBChE Conc. used in PK/PD analysis, individual animals", "setting": "cocaine [1]; 1 mg/kg IM, time 2 hr", "value": "1362 ng/mL and 918 ng/mL and 1777 ng/mL"}, {"measurement": "AlbuBChE Conc. used in PK/PD analysis, individual animals", "setting": "cocaine [1]; 1 mg/kg IM, time 48 hr", "value": "389 ng/mL and 363 ng/mL and 264 ng/mL"}, {"measurement": "AlbuBChE Conc. used in PK/PD analysis, individual animals", "setting": "cocaine [1]; 1 mg/kg IM, time 96 hr", "value": "87 ng/mL and 132 ng/mL and 75 ng/mL"}, {"measurement": "AlbuBChE Conc. used in PK/PD analysis, individual animals", "setting": "cocaine [1]; 1 mg/kg IM, time 120 hr", "value": "36 ng/mL and 72 ng/mL and 38 ng/mL"}, {"measurement": "AlbuBChE Conc. used in PK/PD analysis, individual animals", "setting": "cocaine [1]; 1 mg/kg IM, time 240 hr", "value": 0, "unit": "ng/mL"}, {"measurement": "Cocaine AUC(0-t), individual animals", "setting": "cocaine [1]; 1 mg/kg IM, cocaine 1 mg/kg IV 2 hr post-AlbuBChE", "value": "6597 ng·min/mL and 9746 ng·min/mL and 7297 ng·min/mL"}, {"measurement": "Cocaine AUC(0-t), individual animals", "setting": "cocaine [1]; 1 mg/kg IM, cocaine 1 mg/kg IV 48 hr post-AlbuBChE", "value": "6025 ng·min/mL and 5033 ng·min/mL and 6839 ng·min/mL"}, {"measurement": "Cocaine AUC(0-t), individual animals", "setting": "cocaine [1]; 1 mg/kg IM, cocaine 1 mg/kg IV 96 hr post-AlbuBChE", "value": "9166 ng·min/mL and 9925 ng·min/mL and 11042 ng·min/mL"}, {"measurement": "Cocaine AUC(0-t), individual animals", "setting": "cocaine [1]; 1 mg/kg IM, cocaine 1 mg/kg IV 120 hr post-AlbuBChE", "value": "10451 ng·min/mL and 11561 ng·min/mL and 12568 ng·min/mL"}, {"measurement": "Cocaine AUC(0-t), individual animals", "setting": "cocaine [1]; 1 mg/kg IM, cocaine 1 mg/kg IV 240 hr post-AlbuBChE", "value": "14533 ng·min/mL and 13998 ng·min/mL and 14560 ng·min/mL"}, {"measurement": "AlbuBChE Conc. used in PK/PD analysis, individual animals", "setting": "cocaine [1]; 5 mg/kg IM, time 2 hr", "value": "3740 ng/mL and 9627 ng/mL and 4923 ng/mL"}, {"measurement": "AlbuBChE Conc. used in PK/PD analysis, individual animals", "setting": "cocaine [1]; 5 mg/kg IM, time 48 hr", "value": "1330 ng/mL and 2644 ng/mL and 1605 ng/mL"}, {"measurement": "AlbuBChE Conc. used in PK/PD analysis, individual animals", "setting": "cocaine [1]; 5 mg/kg IM, time 96 hr", "value": "415 ng/mL and 733 ng/mL and 455 ng/mL"}, {"measurement": "AlbuBChE Conc. used in PK/PD analysis, individual animals", "setting": "cocaine [1]; 5 mg/kg IM, time 120 hr", "value": "217 ng/mL and 326 ng/mL and 224 ng/mL"}, {"measurement": "AlbuBChE Conc. used in PK/PD analysis, individual animals", "setting": "cocaine [1]; 5 mg/kg IM, time 240 hr", "value": "58 ng/mL and 71 ng/mL and 63 ng/mL"}, {"measurement": "Cocaine AUC(0-t), individual animals", "setting": "cocaine [1]; 5 mg/kg IM, cocaine 1 mg/kg IV 2 hr post-AlbuBChE", "value": "4594 ng·min/mL and 3039 ng·min/mL and 2234 ng·min/mL"}, {"measurement": "Cocaine AUC(0-t), individual animals", "setting": "cocaine [1]; 5 mg/kg IM, cocaine 1 mg/kg IV 48 hr post-AlbuBChE", "value": "3323 ng·min/mL and 2628 ng·min/mL and 3095 ng·min/mL"}, {"measurement": "Cocaine AUC(0-t), individual animals", "setting": "cocaine [1]; 5 mg/kg IM, cocaine 1 mg/kg IV 96 hr post-AlbuBChE", "value": "6428 ng·min/mL and 6887 ng·min/mL and 6556 ng·min/mL"}, {"measurement": "Cocaine AUC(0-t), individual animals", "setting": "cocaine [1]; 5 mg/kg IM, cocaine 1 mg/kg IV 120 hr post-AlbuBChE", "value": "7954 ng·min/mL and 9620 ng·min/mL and 10560 ng·min/mL"}, {"measurement": "Cocaine AUC(0-t), individual animals", "setting": "cocaine [1]; 5 mg/kg IM, cocaine 1 mg/kg IV 240 hr post-AlbuBChE", "value": "11173 ng·min/mL and 13745 ng·min/mL and 13937 ng·min/mL"}, {"measurement": "AlbuBChE serum concentration that may result in 50% decrease in cocaine concentration (EC50)", "setting": "cocaine [1]; cynomolgus monkeys, sigmoidal inhibitory effect Emax model, PD parameter cocaine AUC", "value": "~0.6", "unit": "µg/mL"}, {"measurement": "Local tolerability and pain at the IM injection site", "setting": "[2]", "value": "acceptable"}, {"measurement": "Immune response", "setting": "[2]; 50 mg to 300 mg single dose", "value": "does not provoke a significant immune response"}, {"measurement": "Safety", "setting": "[2]; IM doses of 50 mg to 300 mg", "value": "No significant safety issues are observed"}, {"measurement": "Tolerability", "setting": "[2]; IM doses of 50 mg to 300 mg", "value": "well tolerated"}, {"measurement": "Blood pressure after AlbuBChE", "setting": "[2]; intramuscular injection", "value": "a significant increase in blood pressure is not observed"}, {"measurement": "AlbuBChE serum concentration that may result in 50% decrease in cocaine concentration (EC50)", "setting": "cocaine [3]", "value": "~0.4", "unit": "µg/mL"}, {"measurement": "Cocaine-related observations (hyperactivity, increased respiratory rate with abdominal breathing)", "setting": "[4]; pre-treatment 0.2 to 5 mg/kg, cocaine 1 mg/kg", "value": "not observed for five days"}, {"measurement": "Clinical or cageside observations associated with AlbuBChE", "setting": "[4]; single IM 0.2, 1 or 5 mg/kg", "value": "no clinical or cageside observations"}, {"measurement": "Deaths during the study", "setting": "[4]; single IM 0.2, 1 or 5 mg/kg", "value": "no deaths"}, {"measurement": "Tolerability", "setting": "[4]; single IM dose of 0.2, 1 or 5 mg/kg", "value": "well tolerated"}]}
